# Laboratory results published in ChEMBL document CHEMBL1155741, “Ellagitannins and hexahydroxydiphenoyl esters as inhibitors of vertebrate squalene epoxidase” (J Nat Prod, 2001).
# B1: Squalene monooxygenase (Rattus norvegicus), P52020 (protein)
# chain: MWTFLGIATFTYFYKKCGDVTLANKELLLCVLVFLSLGLVLSYRCRHRNGGLLGRHQSGSQFAAFSDILSALPLIGFFWAKSPPESEKKEQLESKRRRKEVNLSETTLTGAATSVSTSSVTDPEVIIIGSGVLGSALATVLSRDGRTVTVIERDLKEPDRILGECLQPGGYRVLRELGLGDTVESLNAHHIHGYVIHDCESRSEVQIPYPVSENNQVQSGVAFHHGKFIMSLRKAAMAEPNVKFIEGVVLRLLEEDDAVIGVQYKDKETGDTKELHAPLTVVADGLFSKFRKNLISNKVSVSSHFVGFIMKDAPQFKANFAELVLVDPSPVLIYQISPSETRVLVDIRGELPRNLREYMTEQIYPQIPDHLKESFLEACQNARLRTMPASFLPPSSVNKRGVLLLGDAYNLRHPLTGGGMTVALKDIKIWRQLLKDIPDLYDDAAIFQAKKSFFWSRKRSHSFVVNVLAQALYELFSATDDSLRQLRKACFLYFKLGGECLTGPVGLLSILSPDPLLLIRHFFSVAVYATYFCFKSEPWATKPRALFSSGAILYKACSIIFPLIYSEMKYLVH
# Substrate: CC(C)=CCC/C(C)=C/CC/C(C)=C/CC/C=C(\C)CC/C=C(\C)CCC=C(C)C
# Experiment: Activity of C-terminal hexahistidine-tagged rat recombinant squalene epoxidase without N-terminal putative membrane domain expressed in Escherichia coli
protein,measurement,value
B1,Km,3.8 µM
same,kcat,4.1 min⁻¹
